± gives the standard deviation of the averaged measurements.
Experiment: total protein half-life in vivo (active degradation + dilution); higher = more stable protein
[1] = wild type E. coli NCM3722, growth: C-lim chemostat, doubling time 3 h
[2] = wild type E. coli NCM3722, growth: C-lim chemostat, doubling time 6 h
[3] = wild type E. coli NCM3722, growth: N-lim chemostat, doubling time 6 h
[4] = wild type E. coli NCM3722, growth: N-lim chemostat, doubling time 12 h
[5] = wild type E. coli NCM3722, growth: P-lim chemostat, doubling time 6 h
[6] = E. coli NCM3722 delta-clpP delta-lon delta-hslV, growth: N-lim chemostat, doubling time 6 h
[7] = E. coli NCM3722 delta-hslV, growth: N-lim chemostat, doubling time 6 h
[8] = E. coli NCM3722 delta-lon, growth: N-lim chemostat, doubling time 6 h
[9] = E. coli NCM3722 delta-smpB, growth: N-lim chemostat, doubling time 6 h
[10] = wild type E. coli NCM3722, growth: C-lim chemostat, doubling time 12 h
[11] = E. coli NCM3722 delta-clpP, growth: N-lim chemostat, doubling time 6 h
[12] = wild type E. coli NCM3722, growth: P-lim chemostat, doubling time 12 h

Row | Sequence | total protein half-life in vivo [1] | total protein half-life in vivo [2] | total protein half-life in vivo [3] | total protein half-life in vivo [4] | total protein half-life in vivo [5] | total protein half-life in vivo [6] | total protein half-life in vivo [7] | total protein half-life in vivo [8] | total protein half-life in vivo [9] | total protein half-life in vivo [10] | total protein half-life in vivo [11] | total protein half-life in vivo [12]
1 | MKSALKKSVVSTSISLILASGMAAFAAHAADDVKLKATKTNVAFSDFTPTEYSTKGKPNIIVLTMDDLGYGQLPFDKGSFDPKTMENREVVDTYKIGIDKAIEAAQKSTPTLLSLMDEGVRFTNGYVAHGVSGPSRAAIMTGRAPARFGVYSNTDAQDGIPLTETFLPELFQNHGYYTAAVGKWHLSKISNVPVPEDKQTRDYHDNFTTFSAEEWQPQNRGFDYFMGFHAAGTAYYNSPSLFKNRERVPAKGYISDQLTDEAIGVVDRAKTLDQPFMLYLAYNAPHLPNDNPAPDQYQKQFNTGSQTADNYYASVYSVDQGVKRILEQLKKNGQYDNTIILFTSDNGAVIDGPLPLNGAQKGYKSQTYPGGTHTPMFMWWKGKLQPGNYDKLISAMDFYPTALDAADISIPKDLKLDGVSLLPWLQDKKQGEPHKNLTWITSYSHWFDEENIPFWDNYHKFVRHQSDDYPHNPNTEDLSQFSYTVRNNDYSLVYTVENNQLGLYKLTDLQQKDNLAAANPQVVKEMQGVVREFIDSSQPPLSEVNQEKFNNIKKALSEAK | 2.86 ± 0.07 h | 5.43 ± 0.41 h | 7.26 h | 6.32 h | 5 ± 0.63 h |  |  |  |  |  |  | 
2 | MTSLVVPGLDTLRQWLDDLGMSFFECDNCQALHLPHMQNFDGVFDAKIDLIDNTILFSAMAEVRPSAVLPLAADLSAINASSLTVKAFLDMQDDNLPKLVVCQSLSVMQGVTYEQFAWFVRQSEEQISMVILEANAHQLLLPTDDEGQNNVTENYFLH [P0AAY6] |  |  | 0.868 h |  |  | 2.64 ± 2.3 h | 2.7 h | 4.39 h | 1.74 ± 1.4 h | 1.21 h |  | 
3 | MQENISVTDSYSTGNAAQAMLEKLLQIYDVKTLVAQLNGVGENHWSAAILKRALANDSAWHRLSEKEFAHLQTLLPKPPAHHPHYAFRFIDLFAGIGGIRRGFESIGGQCVFTSEWNKHAVRTYKANHYCDPATHHFNEDIRDITLSHKEGVSDEAAAEHIRQHIPEHDVLLAGFPCQPFSLAGVSKKNSLGRAHGFACDTQGTLFFDVVRIIDARRPAMFVLENVKNLKSHDQGKTFRIIMQTLDELGYDVADAEDNGPDDPKIIDGKHFLPQHRERIVLVGFRRDLNLKADFTLRDISECFPAQRVTLAQLLDPMVEAKYILTPVLWKYLYRYAKKHQARGNGFGYGMVYPNNPQSVTRTLSARYYKDGAEILIDRGWDMATGEKDFDDPLNQQHRPRRLTPRECARLMGFEAPGEAKFRIPVSDTQAYRQFGNSVVVPVFAAVAKLLEPKIKQAVALRQQEAQHGRRSR [P0AED9] | 2.31 ± 0.072 h | 3.32 ± 0.18 h | 3.04 ± 0.39 h | 3.94 ± 0.19 h | 3.02 ± 0.45 h | 6.76 ± 1.5 h | 3.09 ± 0.34 h | 2.96 ± 0.39 h | 2.66 ± 0.11 h | 6.06 ± 0.83 h | 5.15 ± 0.12 h | 5.98 ± 1 h
4 | MASVSISCPSCSATDGVVRNGKSTAGHQRYLCSHCRKTWQLQFTYTASQPGTHQKIIDMAMNGVGCRATARIMGVGLNTILRHLKNSGRSR [P0CF07] |  |  |  |  |  | 2.96 h |  |  |  |  |  | 2.5 h
5 | MPSTRYQKINAHHYRHIWVVGDIHGEYQLLQSRLHQLSFFPKIDLLISVGDNIDRGPESLDVLRLLNQPWFTSVKGNHEAMALEAFETGDGNMWLASGGDWFFDLNDSEQQEAIDLLLKFHHLPHIIEITNDNIKYAIAHADYPGSEYLFGKEIAESELLWPVDRVQKSLNGELQQINGADYFIFGHMMFDNIQTFANQIYIDTGSPNSGRLSFYKIK |  |  | 4.06 h |  |  |  |  |  |  | > 16 h |  | > 16 h
6 | MSLPFLRTLQGDRFFQLLILVGIGLSFFVPFAPKSWPAAIDWHTIITLSGLMLLTKGVELSGYFDVLGRKMVRRFATERRLAMFMVLAAALLSTFLTNDVALFIVVPLTITLKRLCEIPVNRLIIFEALAVNAGSLLTPIGNPQNILIWGRSGLSFAGFIAQMAPLAGAMMLTLLLLCWCCFPGKAMQYHTGVQTPEWKPRLVWSCLGLYIVFLTALEFKQELWGLVIVAAGFALLARRVVLSVDWTLLLVFMAMFIDVHLLTQLPALQGVLGNVSHLSEPGLWLTAIGLSQVISNVPSTILLLNYVPPSLLLVWAVNVGGFGLLPGSLANLIALRMANDRRIWWRFHLYSIPMLLWAALVGYVLLVILPAN |  |  |  | 9.39 h |  |  |  |  |  |  |  | 
7 | MQILKVIGLLMEYPDELLWECKEDALALIRRDAPMLTDFTHNLLNAPLLDKQAEWCEVFDRGRTTSLLLFEHVHAESRDRGQAMVDLLAEYEKVGLQLDCRELPDYLPLYLEYLSVLPDDQAKEGLLNVAPILALLGGRLKQREAPWYALFDALLQLAGSSLSSDSVTKQVNSEERDDTRQALDAVWEEEQVKFIEDNATACDSSPLNQYQRRFSQDVAPQYVDISAGGGK |  | 1.45 ± 0.12 h | 0.752 ± 0.1 h | 0.75 h |  | 3.93 ± 0.43 h | 0.577 h | 0.917 h | 0.553 h | 1.78 h | 1.45 h | 1.94 ± 0.61 h
